Measured values from IntAct's records for PubMed 35512704.

B1: Speckle-type POZ protein (Homo sapiens), O43791 (parent)
chain: MSRVPSPPPPAEMSSGPVAESWCYTQIKVVKFSYMWTINNFSFCREEMGEVIKSSTFSSGANDKLKWCLRVNPKGLDEESKDYLSLYLLLVSCPKSEVRAKFKFSILNAKGEETKAMESQRAYRFVQGKDWGFKKFIRRDFLLDEANGLLPDDKLTLFCEVSVVQDSVNISGQNTMNMVKVPECRLADELGGLWENSRFTDCCLCVAGQEFQAHKAILAARSPVFSAMFEHEMEESKKNRVEINDVEPEVFKEMMCFIYTGKAPNLDKMADDLLAAADKYALERLKVMCEDALCSNLSVENAAEILILADLHSADQLKTQAVDFINYHASDVLETSGWKSMVVSHPHLVAEAYRSLASAQCPFLGPPRKRLKQS
partner: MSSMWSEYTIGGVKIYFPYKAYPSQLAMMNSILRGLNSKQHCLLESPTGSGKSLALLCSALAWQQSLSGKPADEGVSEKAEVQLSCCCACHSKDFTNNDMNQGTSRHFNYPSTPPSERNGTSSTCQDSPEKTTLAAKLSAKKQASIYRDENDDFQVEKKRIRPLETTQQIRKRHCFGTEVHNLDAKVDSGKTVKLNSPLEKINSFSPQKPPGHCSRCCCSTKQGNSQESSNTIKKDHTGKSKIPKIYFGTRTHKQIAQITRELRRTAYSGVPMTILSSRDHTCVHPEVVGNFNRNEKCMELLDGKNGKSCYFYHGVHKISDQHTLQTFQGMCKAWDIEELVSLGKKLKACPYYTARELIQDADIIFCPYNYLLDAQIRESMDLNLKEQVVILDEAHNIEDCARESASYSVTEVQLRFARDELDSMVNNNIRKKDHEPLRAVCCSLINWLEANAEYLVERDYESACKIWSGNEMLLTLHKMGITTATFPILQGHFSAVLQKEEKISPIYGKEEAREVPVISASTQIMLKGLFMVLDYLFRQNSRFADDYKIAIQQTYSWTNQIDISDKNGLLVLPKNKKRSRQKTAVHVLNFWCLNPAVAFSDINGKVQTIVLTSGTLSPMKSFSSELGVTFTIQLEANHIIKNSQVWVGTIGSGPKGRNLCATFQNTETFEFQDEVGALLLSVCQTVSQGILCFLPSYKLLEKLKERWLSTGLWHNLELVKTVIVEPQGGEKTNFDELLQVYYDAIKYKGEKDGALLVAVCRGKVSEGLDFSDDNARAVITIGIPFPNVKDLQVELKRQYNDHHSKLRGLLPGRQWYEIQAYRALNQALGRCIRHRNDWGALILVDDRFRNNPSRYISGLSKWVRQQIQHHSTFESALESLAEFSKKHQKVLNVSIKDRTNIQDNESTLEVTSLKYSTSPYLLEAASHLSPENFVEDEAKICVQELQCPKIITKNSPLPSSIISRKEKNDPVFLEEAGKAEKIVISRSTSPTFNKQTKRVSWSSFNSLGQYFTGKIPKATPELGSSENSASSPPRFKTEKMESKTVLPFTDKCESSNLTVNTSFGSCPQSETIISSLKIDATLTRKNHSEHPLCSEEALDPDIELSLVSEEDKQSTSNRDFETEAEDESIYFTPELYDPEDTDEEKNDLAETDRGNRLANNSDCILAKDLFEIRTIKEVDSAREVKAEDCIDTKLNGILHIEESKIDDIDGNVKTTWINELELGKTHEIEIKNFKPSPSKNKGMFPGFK
B2: Speckle-type POZ protein (Homo sapiens), O43791 (parent)
chain: B1 chain
partner: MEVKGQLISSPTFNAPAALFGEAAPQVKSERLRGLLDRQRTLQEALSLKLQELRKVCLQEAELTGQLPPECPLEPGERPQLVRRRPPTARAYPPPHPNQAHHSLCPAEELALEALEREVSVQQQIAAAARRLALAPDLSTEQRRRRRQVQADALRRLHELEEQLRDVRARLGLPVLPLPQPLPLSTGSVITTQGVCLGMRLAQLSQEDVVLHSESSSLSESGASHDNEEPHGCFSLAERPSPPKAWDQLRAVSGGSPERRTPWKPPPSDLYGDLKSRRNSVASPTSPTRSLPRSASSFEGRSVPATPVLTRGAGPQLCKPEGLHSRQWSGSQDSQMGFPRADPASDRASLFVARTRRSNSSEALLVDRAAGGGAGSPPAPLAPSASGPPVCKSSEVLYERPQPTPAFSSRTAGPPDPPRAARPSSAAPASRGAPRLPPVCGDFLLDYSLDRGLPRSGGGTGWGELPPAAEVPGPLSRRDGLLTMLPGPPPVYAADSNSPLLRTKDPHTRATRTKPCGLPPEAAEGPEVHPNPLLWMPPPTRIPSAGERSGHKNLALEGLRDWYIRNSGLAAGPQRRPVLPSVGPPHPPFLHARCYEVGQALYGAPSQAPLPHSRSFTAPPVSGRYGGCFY
B3: Speckle-type POZ protein (Homo sapiens), O43791 (parent)
chain: B1 chain
partner: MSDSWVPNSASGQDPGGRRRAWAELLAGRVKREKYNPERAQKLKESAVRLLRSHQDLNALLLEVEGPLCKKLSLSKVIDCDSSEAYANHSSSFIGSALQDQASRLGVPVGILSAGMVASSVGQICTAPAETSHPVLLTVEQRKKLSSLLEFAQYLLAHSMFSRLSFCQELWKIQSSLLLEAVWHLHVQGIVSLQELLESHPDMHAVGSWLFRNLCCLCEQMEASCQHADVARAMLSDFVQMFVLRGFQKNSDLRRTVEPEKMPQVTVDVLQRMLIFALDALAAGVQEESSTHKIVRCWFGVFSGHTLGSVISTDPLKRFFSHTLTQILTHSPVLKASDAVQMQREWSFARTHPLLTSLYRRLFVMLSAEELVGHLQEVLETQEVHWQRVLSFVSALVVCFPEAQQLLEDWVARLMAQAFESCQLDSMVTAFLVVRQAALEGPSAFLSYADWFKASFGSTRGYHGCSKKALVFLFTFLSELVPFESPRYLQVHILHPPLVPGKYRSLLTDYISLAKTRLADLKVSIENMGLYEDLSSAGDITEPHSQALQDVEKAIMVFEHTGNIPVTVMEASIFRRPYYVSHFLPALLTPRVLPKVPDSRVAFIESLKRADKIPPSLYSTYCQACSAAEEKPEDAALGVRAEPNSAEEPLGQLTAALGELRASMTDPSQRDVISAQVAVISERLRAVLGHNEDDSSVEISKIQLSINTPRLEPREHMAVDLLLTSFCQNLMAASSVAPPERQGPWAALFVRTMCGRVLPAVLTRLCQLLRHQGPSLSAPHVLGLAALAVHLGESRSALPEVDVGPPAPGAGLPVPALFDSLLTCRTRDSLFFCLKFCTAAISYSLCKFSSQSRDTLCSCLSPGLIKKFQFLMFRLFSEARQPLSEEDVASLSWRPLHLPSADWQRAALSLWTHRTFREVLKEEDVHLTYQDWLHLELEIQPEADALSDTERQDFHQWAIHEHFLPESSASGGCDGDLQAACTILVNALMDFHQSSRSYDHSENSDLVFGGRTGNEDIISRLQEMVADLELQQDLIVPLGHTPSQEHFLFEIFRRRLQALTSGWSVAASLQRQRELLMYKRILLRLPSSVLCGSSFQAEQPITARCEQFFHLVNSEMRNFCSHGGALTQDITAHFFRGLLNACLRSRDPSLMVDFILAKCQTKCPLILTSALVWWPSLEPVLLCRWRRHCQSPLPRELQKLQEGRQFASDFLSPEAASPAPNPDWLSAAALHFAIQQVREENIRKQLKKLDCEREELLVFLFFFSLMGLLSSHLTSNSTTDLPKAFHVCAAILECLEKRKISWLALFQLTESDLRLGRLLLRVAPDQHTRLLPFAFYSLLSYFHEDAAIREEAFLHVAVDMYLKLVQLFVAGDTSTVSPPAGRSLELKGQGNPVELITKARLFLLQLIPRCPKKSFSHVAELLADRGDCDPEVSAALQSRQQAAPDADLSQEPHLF
B4: Speckle-type POZ protein (Homo sapiens), O43791 (parent)
chain: B1 chain
partner: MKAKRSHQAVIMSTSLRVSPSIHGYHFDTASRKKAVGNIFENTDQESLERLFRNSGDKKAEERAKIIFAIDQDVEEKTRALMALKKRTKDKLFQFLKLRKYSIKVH
B5: Mothers against decapentaplegic homolog 4 (Homo sapiens), Q13485 (parent)
chain: MDNMSITNTPTSNDACLSIVHSLMCHRQGGESETFAKRAIESLVKKLKEKKDELDSLITAITTNGAHPSKCVTIQRTLDGRLQVAGRKGFPHVIYARLWRWPDLHKNELKHVKYCQYAFDLKCDSVCVNPYHYERVVSPGIDLSGLTLQSNAPSSMMVKDEYVHDFEGQPSLSTEGHSIQTIQHPPSNRASTETYSTPALLAPSESNATSTANFPNIPVASTSQPASILGGSHSEGLLQIASGPQPGQQQNGFTGQPATYHHNSTTTWTGSRTAPYTPNLPHHQNGHLQHHPPMPPHPGHYWPVHNELAFQPPISNHPAPEYWCSIAYFEMDVQVGETFKVPSSCPIVTVDGYVDPSGGDRFCLGQLSNVHRTEAIERARLHIGKGVQLECKGEGDVWVRCLSDHAVFVQSYYLDREAGRAPGDAVHKIYPSAYIKVFDLRQCHRQMQQQAATAQAAAAAQAAAVAGNIPGPGSVGGIAPAISLSAAAGIGVDDLRRLCILRMSFVKGWGPDYPRQSIKETPCWIEIHLHRALQLLDEVLHTMPIADPQPLD
partner: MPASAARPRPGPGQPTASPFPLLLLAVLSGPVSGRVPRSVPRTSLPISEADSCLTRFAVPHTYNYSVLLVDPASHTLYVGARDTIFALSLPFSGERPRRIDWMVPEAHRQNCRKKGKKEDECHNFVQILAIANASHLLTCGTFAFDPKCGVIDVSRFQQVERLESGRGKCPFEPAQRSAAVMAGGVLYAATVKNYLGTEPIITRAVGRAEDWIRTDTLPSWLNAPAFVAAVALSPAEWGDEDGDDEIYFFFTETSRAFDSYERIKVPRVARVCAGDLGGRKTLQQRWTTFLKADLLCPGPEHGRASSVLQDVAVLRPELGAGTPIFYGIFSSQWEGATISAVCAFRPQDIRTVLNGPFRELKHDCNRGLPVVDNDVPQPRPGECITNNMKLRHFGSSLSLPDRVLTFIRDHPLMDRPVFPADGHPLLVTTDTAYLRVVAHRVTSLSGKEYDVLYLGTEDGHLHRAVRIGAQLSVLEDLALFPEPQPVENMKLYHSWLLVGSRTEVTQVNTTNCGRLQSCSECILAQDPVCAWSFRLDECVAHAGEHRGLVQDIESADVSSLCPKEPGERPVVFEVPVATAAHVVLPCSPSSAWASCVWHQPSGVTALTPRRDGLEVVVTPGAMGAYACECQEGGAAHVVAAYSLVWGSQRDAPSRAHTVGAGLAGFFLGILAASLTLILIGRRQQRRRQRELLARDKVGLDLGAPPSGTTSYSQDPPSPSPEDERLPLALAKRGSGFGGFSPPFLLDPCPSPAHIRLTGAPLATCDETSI

Variants of: B1
Settings: with fancj_human BRIP1, Q9BX63

Row | effect of a mutation on the interaction | Variant
1 | with no effect | F102C

Variants of: B2
Settings: with cc120_human CCDC120, Q96HB5

Row | effect of a mutation on the interaction | Variant
2 | with no effect | Y87C

Variants of: B2
Settings: with cc120_human CCDC120, Q96HB5
Remark: another data set of the same source

Row | effect of a mutation on the interaction | Variant
3 | with no effect | F133L

Variants of: B2
Settings: with cc120_human CCDC120, Q96HB5
Remark: another data set of the same source

Row | effect of a mutation on the interaction | Variant
4 | with no effect | F133V

Variants of: B2
Settings: with cc120_human CCDC120, Q96HB5
Remark: another data set of the same source

Row | effect of a mutation on the interaction | Variant
5 | with no effect | F102C

Variants of: B3
Settings: with fanca_human FANCA

Row | effect of a mutation on the interaction | Variant
6 | with no effect | F102C

Variants of: B3
Settings: with fanca_human FANCA
Remark: another data set of the same source

Row | effect of a mutation on the interaction | Variant
7 | with no effect | F133L

Variants of: B4
Settings: with tcim_human TCIM

Row | effect of a mutation on the interaction | Variant
8 | with no effect | F133L

Variants of: B4
Settings: with tcim_human TCIM
Remark: another data set of the same source

Row | effect of a mutation on the interaction | Variant
9 | with no effect | F133V

Variants of: B4
Settings: with tcim_human TCIM
Remark: another data set of the same source

Row | effect of a mutation on the interaction | Variant
10 | with no effect | F102C

Variants of: B4
Settings: with tcim_human TCIM
Remark: another data set of the same source

Row | effect of a mutation on the interaction | Variant
11 | with no effect | Y87C

Variants of: B5
Settings: with sem4f_human SEMA4F

Row | effect of a mutation on the interaction | Variant
12 | with no effect | R361H
